In paper PMC7679444:

B1: TMEM59 peptide (residues 268–280), wild type [modified: long spacer (Tds) at the N-terminal end, used for immobilisation; long spacer (Tds) at the N-terminal end, used for immobilisation] [not stated] / GST-HA-ATG16L1(231–607) … (parent)
chain 1: PLPVEQDDDIEVIVDETSDHTEETSPVRAISRAATKRLSQPAGGLLDSITNIFGRRSVSSFPVPQDNVDTHPGSGKEVRVPATALCVFDAHDGEVNAVQFSPGSRLLATGGMDRRVKLWEVFGEKCEFKGSLSGSNAGITSIEFDSAGSYLLAASNDFASRIWTVDDYRLRHTLTGHSGKVLSAKFLLDNARIVSGSHDRTLKLWDLRSKVCIKTVFAGSSCNDIVCTEQCVMSGHFDKKIRFWDIRSESIVREMELLGKITALDLNPERTELLSCSRDDLLKVIDLRTNAIKQTFSAPGFKCGSDWTRVVFSPDGSYVAAGSAEGSLYIWSVLTGKVEKVLSKQHSSSINAVAWSPSGSHVVSVDKGCKAVLWAQY
chain 2: YVPSEKLSIYGDL

Variants of: B1
Experiment: peptide microarray
Details: with GST-HA-ATG16L1(231–607) [human]; ligand 800, 600, 400 nM; parent: 100

Variant	percent of parent [% WT]
chain 2 Y10L	36
chain 2 Y10Q	2
chain 2 Y10V	9
chain 2 Y10E	2
chain 2 Y10M	3
chain 2 Y10G	2
chain 2 Y10D	4
chain 2 Y10A	4
chain 2 Y10H	3
chain 2 Y10P	3
chain 2 Y10I	21
chain 2 Y10T	4
chain 2 Y10K	6
chain 2 Y10R	5
chain 2 Y10N	3
chain 2 Y10W	135
chain 2 Y10F	106
chain 2 Y10S	3
chain 2 I9K	149
chain 2 I9T	49
chain 2 I9S	61
chain 2 I9Q	102
chain 2 I9D	15
chain 2 I9V	109

Variant	percent of parent [% WT]
chain 2 I9F	159
chain 2 I9P	89
chain 2 I9E	96
chain 2 I9M	66
chain 2 I9L	95
chain 2 I9R	93
chain 2 I9H	145
chain 2 I9G	39
chain 2 I9N	51
chain 2 I9W	200
chain 2 I9Y	198
chain 2 I9A	76
chain 2 L13M	36
chain 2 L13Q	37
chain 2 L13V	123
chain 2 L13S	32
chain 2 L13D	27
chain 2 L13R	48
chain 2 L13I	177
chain 2 L13N	30
chain 2 L13W	196
chain 2 L13K	21
chain 2 L13F	173
chain 2 L13Y	201

Variant	percent of parent [% WT]
chain 2 L13E	60
chain 2 L13T	5
chain 2 L13P	94
chain 2 L13H	66
chain 2 L13G	54
chain 2 L13A	50
chain 2 D12Y	180
chain 2 D12E	173
chain 2 D12H	179
chain 2 D12N	128
chain 2 D12Q	105
chain 2 D12L	110
chain 2 D12W	177
chain 2 D12S	128
chain 2 D12I	129
chain 2 D12T	133
chain 2 D12A	131
chain 2 D12R	164
chain 2 D12P	145
chain 2 D12G	158
chain 2 D12K	191
chain 2 D12V	159
chain 2 D12M	93
chain 2 D12F	138

Variant	percent of parent [% WT]
chain 2 Y1V	16
chain 2 Y1N	22
chain 2 Y1D	12
chain 2 Y1E	13
chain 2 Y1G	92
chain 2 Y1Q	12
chain 2 Y1W	121
chain 2 Y1M	10
chain 2 Y1S	28
chain 2 Y1R	17
chain 2 Y1K	19
chain 2 Y1H	28
chain 2 Y1L	41
chain 2 Y1I	79
chain 2 Y1T	17
chain 2 Y1A	18
chain 2 Y1F	121
chain 2 Y1P	17
chain 2 S8W	179
chain 2 S8V	60
chain 2 S8Y	137
chain 2 G11A	18
chain 2 G11S	103
chain 2 G11D	146

Variant	percent of parent [% WT]
chain 2 G11L	17
chain 2 G11T	117
chain 2 G11V	13
chain 2 G11M	40
chain 2 G11W	165
chain 2 G11N	140
chain 2 G11Q	31
chain 2 G11I	1
chain 2 G11F	43
chain 2 G11Y	150
chain 2 G11P	155
chain 2 G11E	129
chain 2 G11H	156
chain 2 G11K	127
chain 2 G11R	62
chain 2 V2S	56
chain 2 V2Q	15
chain 2 V2R	47
chain 2 V2T	31
chain 2 V2Y	90
chain 2 V2W	119
chain 2 V2P	41

Same assay, conditions: with GST-HA-ATG16L1(231–607) [human]; ligand 200, 50, 20 nM; parent: 100

Variant	percent of parent [% WT]
chain 2 Y1V	15
chain 2 Y1N	21
chain 2 Y1D	10
chain 2 Y1E	13
chain 2 Y1G	94
chain 2 Y1Q	10
chain 2 Y1W	120
chain 2 Y1M	12
chain 2 Y1S	29
chain 2 Y1R	12
chain 2 Y1K	17
chain 2 Y1H	30
chain 2 Y1L	44
chain 2 Y1I	75
chain 2 Y1T	17
chain 2 Y1A	17
chain 2 Y1F	139
chain 2 Y1P	16
chain 2 V2S	50
chain 2 V2Q	12
chain 2 V2R	41
chain 2 V2T	33
chain 2 V2Y	80
chain 2 V2W	118
chain 2 V2P	35
